# Data reported in US20240425885.
# Columns and labels:
# Experiment in all cases: cleavage_in_vitro
# [1] = system: T1, OMNI-134 (metagenomic, unknown); conditions: TXTL; PAM NRAANYNN
# T1 sequence: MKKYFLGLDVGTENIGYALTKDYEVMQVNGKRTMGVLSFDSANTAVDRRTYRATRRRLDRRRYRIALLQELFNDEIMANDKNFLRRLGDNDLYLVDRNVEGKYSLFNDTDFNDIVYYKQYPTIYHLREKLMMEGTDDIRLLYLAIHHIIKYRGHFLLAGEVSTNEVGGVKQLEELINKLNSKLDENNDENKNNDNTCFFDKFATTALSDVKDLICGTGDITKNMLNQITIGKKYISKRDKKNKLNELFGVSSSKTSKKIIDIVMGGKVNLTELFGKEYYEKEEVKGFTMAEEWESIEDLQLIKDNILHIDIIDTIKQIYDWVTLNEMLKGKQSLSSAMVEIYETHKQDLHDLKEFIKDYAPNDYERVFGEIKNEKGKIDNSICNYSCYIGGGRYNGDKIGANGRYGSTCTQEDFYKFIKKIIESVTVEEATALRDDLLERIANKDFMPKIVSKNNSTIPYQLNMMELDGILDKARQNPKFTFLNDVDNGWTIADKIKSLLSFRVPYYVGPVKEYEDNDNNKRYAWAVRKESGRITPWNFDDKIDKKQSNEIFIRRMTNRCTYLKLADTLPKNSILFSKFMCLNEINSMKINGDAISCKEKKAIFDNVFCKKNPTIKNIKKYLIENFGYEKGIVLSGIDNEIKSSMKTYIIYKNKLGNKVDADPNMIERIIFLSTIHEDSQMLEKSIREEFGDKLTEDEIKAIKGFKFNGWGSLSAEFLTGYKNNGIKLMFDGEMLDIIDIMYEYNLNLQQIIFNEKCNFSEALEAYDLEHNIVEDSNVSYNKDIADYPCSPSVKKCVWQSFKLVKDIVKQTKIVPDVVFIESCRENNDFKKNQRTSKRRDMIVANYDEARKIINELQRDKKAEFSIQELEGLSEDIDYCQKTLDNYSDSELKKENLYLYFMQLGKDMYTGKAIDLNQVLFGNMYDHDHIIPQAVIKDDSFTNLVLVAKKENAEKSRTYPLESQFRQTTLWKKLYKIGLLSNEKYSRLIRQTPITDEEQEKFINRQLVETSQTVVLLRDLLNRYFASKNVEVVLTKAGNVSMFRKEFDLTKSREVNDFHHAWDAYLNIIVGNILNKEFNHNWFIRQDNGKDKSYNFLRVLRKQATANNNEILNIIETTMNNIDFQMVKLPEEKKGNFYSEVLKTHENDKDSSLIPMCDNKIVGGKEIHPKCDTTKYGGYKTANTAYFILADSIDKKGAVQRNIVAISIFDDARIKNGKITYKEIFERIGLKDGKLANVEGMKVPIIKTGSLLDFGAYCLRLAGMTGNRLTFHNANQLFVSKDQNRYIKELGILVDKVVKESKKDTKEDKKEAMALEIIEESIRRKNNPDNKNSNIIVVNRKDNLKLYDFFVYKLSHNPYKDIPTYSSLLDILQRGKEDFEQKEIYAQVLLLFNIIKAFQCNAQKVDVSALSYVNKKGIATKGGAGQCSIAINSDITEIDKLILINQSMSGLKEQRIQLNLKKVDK
# [2] = system: T2, OMNI-107 (metagenomic, unknown); conditions: TXTL; PAM NNNAANNN
# T2 sequence: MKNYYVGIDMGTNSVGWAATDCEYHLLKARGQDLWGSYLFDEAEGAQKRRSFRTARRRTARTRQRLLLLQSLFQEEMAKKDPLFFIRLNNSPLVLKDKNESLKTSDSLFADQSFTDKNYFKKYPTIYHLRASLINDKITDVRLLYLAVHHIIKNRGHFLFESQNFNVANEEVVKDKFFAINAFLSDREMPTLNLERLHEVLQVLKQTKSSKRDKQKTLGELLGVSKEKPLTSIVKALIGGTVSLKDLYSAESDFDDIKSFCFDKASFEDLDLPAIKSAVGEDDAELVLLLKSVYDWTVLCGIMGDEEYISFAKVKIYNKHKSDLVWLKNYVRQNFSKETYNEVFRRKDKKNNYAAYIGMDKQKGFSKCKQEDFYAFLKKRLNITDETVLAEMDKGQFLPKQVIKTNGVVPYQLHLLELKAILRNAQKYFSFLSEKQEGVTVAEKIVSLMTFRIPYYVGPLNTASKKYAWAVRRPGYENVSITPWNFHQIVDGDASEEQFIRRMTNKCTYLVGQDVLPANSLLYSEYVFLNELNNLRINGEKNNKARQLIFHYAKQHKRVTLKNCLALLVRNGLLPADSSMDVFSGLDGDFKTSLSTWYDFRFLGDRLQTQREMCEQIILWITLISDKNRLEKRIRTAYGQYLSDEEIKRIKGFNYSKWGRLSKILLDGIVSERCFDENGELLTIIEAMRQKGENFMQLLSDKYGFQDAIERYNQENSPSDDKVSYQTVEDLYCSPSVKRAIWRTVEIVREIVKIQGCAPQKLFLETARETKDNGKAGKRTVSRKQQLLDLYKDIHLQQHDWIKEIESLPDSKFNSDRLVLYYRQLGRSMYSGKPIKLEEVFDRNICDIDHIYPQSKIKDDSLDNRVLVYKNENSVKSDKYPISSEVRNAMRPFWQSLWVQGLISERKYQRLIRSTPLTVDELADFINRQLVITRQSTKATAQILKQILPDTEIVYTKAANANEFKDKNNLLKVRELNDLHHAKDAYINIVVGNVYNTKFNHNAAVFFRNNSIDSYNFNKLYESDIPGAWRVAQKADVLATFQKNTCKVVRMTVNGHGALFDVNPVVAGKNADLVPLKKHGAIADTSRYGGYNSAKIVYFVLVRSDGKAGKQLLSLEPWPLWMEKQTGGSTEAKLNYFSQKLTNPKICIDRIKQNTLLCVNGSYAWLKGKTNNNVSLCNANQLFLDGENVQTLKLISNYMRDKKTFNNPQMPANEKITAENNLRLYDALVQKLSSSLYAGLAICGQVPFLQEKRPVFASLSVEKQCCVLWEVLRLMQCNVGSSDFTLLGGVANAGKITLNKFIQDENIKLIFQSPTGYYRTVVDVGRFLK
# [3] = system: T3, OMNI-97 (metagenomic, unknown); conditions: TXTL; PAM NNRCCANN
# T3 sequence: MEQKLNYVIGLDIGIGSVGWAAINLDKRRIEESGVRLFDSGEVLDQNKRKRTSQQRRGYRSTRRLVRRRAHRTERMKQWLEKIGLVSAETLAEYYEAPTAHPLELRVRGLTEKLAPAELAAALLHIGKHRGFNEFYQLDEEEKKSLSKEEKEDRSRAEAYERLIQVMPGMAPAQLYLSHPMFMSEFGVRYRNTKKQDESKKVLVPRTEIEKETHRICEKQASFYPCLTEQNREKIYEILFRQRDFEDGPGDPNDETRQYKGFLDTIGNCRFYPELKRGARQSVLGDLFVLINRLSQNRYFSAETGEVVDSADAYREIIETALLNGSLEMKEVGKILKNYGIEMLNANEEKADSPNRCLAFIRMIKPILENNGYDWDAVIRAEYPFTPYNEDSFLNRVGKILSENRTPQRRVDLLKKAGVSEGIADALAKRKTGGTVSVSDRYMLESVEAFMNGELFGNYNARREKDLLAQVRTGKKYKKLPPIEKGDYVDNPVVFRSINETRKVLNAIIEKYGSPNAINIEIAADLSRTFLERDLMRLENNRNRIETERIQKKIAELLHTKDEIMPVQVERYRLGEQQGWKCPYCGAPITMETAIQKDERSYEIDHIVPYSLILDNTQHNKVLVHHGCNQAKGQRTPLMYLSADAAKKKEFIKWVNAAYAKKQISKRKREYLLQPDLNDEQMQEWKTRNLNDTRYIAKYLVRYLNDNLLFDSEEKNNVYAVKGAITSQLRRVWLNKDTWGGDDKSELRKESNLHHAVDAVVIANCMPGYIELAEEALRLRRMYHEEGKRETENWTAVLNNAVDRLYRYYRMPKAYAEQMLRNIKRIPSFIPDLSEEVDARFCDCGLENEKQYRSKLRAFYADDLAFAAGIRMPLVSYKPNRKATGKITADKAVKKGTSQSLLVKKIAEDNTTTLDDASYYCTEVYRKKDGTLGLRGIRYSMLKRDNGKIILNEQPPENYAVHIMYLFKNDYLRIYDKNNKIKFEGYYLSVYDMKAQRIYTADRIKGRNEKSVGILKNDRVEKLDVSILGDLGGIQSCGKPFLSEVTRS
sequence,measurement,setting,value
GGAAGAGCAGAGCCUUGGUCUCGUUAUUUUGAAUACUAGAAAGUGUAUUUAAAGUAAAUAAAAAGUUAAAUUUAAAGAUAAAAGUAAAUAAUUAGUAAAUUAACUUCUGAUAAUGUGAAAUUCAUUUGUUUUUU / GGAAGAGCAGAGCCTTGGTCTCNNNNNNNN / NNNNNNNNGAGACCAAGGCTCTGCTCTTCC [T2 sgRNA 39 V1 ; T2 protospacer + 8N PAM library (pbPOS T2)],activity (1-depletion score),[1],0.99
GGAAGAGCAGAGCCUUGGUCUCGUUUGAGAGUAUUGUUAUUGAAAAAUAACAAUCGUUCAAAUAAGGUUUUACCUUAAGCAUCCUAUUGGAUCAGUCGACUAACCAGAGUCGACUAUUUUUU / GGAAGAGCAGAGCCTTGGTCTCNNNNNNNN / NNNNNNNNGAGACCAAGGCTCTGCTCTTCC [T2 sgRNA 34 V1 ; T2 protospacer + 8N PAM library (pbPOS T2)],activity (1-depletion score),[1],0.94
GGAAGAGCAGAGCCUUGGUCUCGUUUGAGAGUAUUGUUGAAAAACAAUCGUUCAAAUAAGGUUUUACCUUAAGCAUCCUAUUGGAUCAGUCGACUAAUCAGAGUCGACUAUUUUUU / GGAAGAGCAGAGCCTTGGTCTCNNNNNNNN / NNNNNNNNGAGACCAAGGCTCTGCTCTTCC [T2 sgRNA 19 V1 ; T2 protospacer + 8N PAM library (pbPOS T2)],activity (1-depletion score),[1],0.98
GGAAGAGCAGAGCCUUGGUCUCGUUUGAGUAUGGUGUUAGAAAUAACACCAUUAGUUCAAAUAAGAUUUUUUCAAAUCGCCGAUUUUUCGGUAGUACACGAUGUGUACAUUGGAUCUGUUGCAAGACAGGUCCUUUUUUU / GGAAGAGCAGAGCCTTGGTCTCNNNNNNNN / NNNNNNNNGAGACCAAGGCTCTGCTCTTCC [T2 sgRNA 16 V1 ; T2 protospacer + 8N PAM library (pbPOS T2)],activity (1-depletion score),[2],0.7
GGAAGAGCAGAGCCUUGGUCUCGUUUGAGUAUGGUGUUAGAAAUAACACCAUUAGUUCAAAUAAGAUUUUUUCAAAUCGCCGAUUUUUCGGUAGUACACGAUGUGUACAUUUUUU / GGAAGAGCAGAGCCTTGGTCTCNNNNNNNN / NNNNNNNNGAGACCAAGGCTCTGCTCTTCC [T2 sgRNA 16 V3 ; T2 protospacer + 8N PAM library (pbPOS T2)],activity (1-depletion score),[2],0.83
GGAAGAGCAGAGCCUUGGUCUCGUUUUGGGCCUCUGAUGGGAAACCAUCAGAGACCUGAGAUAAGGCUUUAUGCCGUAGGGUAUGGCGGUAACCCGGAGUAUUCCGAAUCCGCUUUUUCUUUGCCUGUAAAUACAGUAUAACAUAUUAUUUCGUCCUUUUUU / GGAAGAGCAGAGCCTTGGTCTCNNNNNNNN / NNNNNNNNGAGACCAAGGCTCTGCTCTTCC [T2 sgRNA 8 V1 ; T2 protospacer + 8N PAM library (pbPOS T2)],activity (1-depletion score),[3],0.93
GGAAGAGCAGAGCCUUGGUCUCGUUUUGGGCCUCUGAUGGGAAACCAUCAGAGACCUGAGAUAAGGCUUUAUGCCGUAGGGUAUGGCGGUAACCCGGAGUAUUCCGAAUCCGCUUUUUUU / GGAAGAGCAGAGCCTTGGTCTCNNNNNNNN / NNNNNNNNGAGACCAAGGCTCTGCTCTTCC [T2 sgRNA 8 V3 ; T2 protospacer + 8N PAM library (pbPOS T2)],activity (1-depletion score),[3],0.97
